Substrate: CC(C)(COP(=O)(O)OP(=O)(O)OC[C@H]1O[C@@H](n2cnc3c(N)ncnc32)[C@H](O)[C@@H]1OP(=O)(O)O)[C@@H](O)C(=O)NCCC(=O)NCCS
Assay: purified protein
Assay type: biochemical, Streptomyces platensis
Conditions: saturating 6 (100 μM), Tris pH 7.8, 25 °C

Row | Protein | Km | Vmax | kcat | kcat/Km | also measured
1 | PtmA2 (Streptomyces platensis; A497K) (protein) MQHTTIGDVLREHRRSHPGRTALVDGPVRLTWPELDDRVNRLAGSLAASGIGRGDRIMWLGQNSFRVYELIAAAGKLGAMVCVGYWRWAPPEMEFALRDFDPHLVVWQHQEIHETVARTREALGSDDTARWLRHDSAPQDPDGYEAFLAAGGLADPDLDIDPDSPVLVLYTAAMSGRQCGSLLSHTNLIAMATAAAWLGDIDHTTAFLNSGPMFHIGNHQFWGMPTLLMAGKNVIVRRVVAEEVRDLLVAEECTHAFLMPPTVAEIVRLNRDTGHDLSRLRATVAPHLWEGMATTDTSRFTRSGAAAGRGYGQTELSGFAVTAAYGGPAAGNAGRPGPGLTVRVLDTAGRECAVGEAGEICARGTVVHRGYWNRDEVNAHRFRSGWWHTTDLGRREPDGSLTFLGTTTRMLKSAAENIFPAEVENCIEQHPAVREAAVIGVPNTRWAQDVKAVVVLEPDAGVSEQEIIDHCRPRIASYKKPKSVAFAAALPRTVSGKRDYDALDKEYGGGGYPGAATLGPGR | 6.8 ± 1.0 µM | 4.74 µmol/min | 32 s⁻¹ | 4.7e+06 M⁻¹ s⁻¹ | –
2 | PtmA2 (Streptomyces platensis) (protein) MQHTTIGDVLREHRRSHPGRTALVDGPVRLTWPELDDRVNRLAGSLAASGIGRGDRIMWLGQNSFRVYELIAAAGKLGAMVCVGYWRWAPPEMEFALRDFDPHLVVWQHQEIHETVARTREALGSDDTARWLRHDSAPQDPDGYEAFLAAGGLADPDLDIDPDSPVLVLYTAAMSGRQCGSLLSHTNLIAMATAAAWLGDIDHTTAFLNSGPMFHIGNHQFWGMPTLLMAGKNVIVRRVVAEEVRDLLVAEECTHAFLMPPTVAEIVRLNRDTGHDLSRLRATVAPHLWEGMATTDTSRFTRSGAAAGRGYGQTELSGFAVTAAYGGPAAGNAGRPGPGLTVRVLDTAGRECAVGEAGEICARGTVVHRGYWNRDEVNAHRFRSGWWHTTDLGRREPDGSLTFLGTTTRMLKSAAENIFPAEVENCIEQHPAVREAAVIGVPNTRWAQDVKAVVVLEPDAGVSEQEIIDHCRPRIASYKKPKSVAFAAALPRTVSGARDYDALDKEYGGGGYPGAATLGPGR | 6.2 ± 0.6 µM | 5.82 µmol/min | 20 s⁻¹ | 3.2e+06 M⁻¹ s⁻¹ | –
3 | PtmA2 (Streptomyces platensis; A172S/A173G/A497K/C179K/M174T/Q178P) (protein) MQHTTIGDVLREHRRSHPGRTALVDGPVRLTWPELDDRVNRLAGSLAASGIGRGDRIMWLGQNSFRVYELIAAAGKLGAMVCVGYWRWAPPEMEFALRDFDPHLVVWQHQEIHETVARTREALGSDDTARWLRHDSAPQDPDGYEAFLAAGGLADPDLDIDPDSPVLVLYTSGTSGRPKGSLLSHTNLIAMATAAAWLGDIDHTTAFLNSGPMFHIGNHQFWGMPTLLMAGKNVIVRRVVAEEVRDLLVAEECTHAFLMPPTVAEIVRLNRDTGHDLSRLRATVAPHLWEGMATTDTSRFTRSGAAAGRGYGQTELSGFAVTAAYGGPAAGNAGRPGPGLTVRVLDTAGRECAVGEAGEICARGTVVHRGYWNRDEVNAHRFRSGWWHTTDLGRREPDGSLTFLGTTTRMLKSAAENIFPAEVENCIEQHPAVREAAVIGVPNTRWAQDVKAVVVLEPDAGVSEQEIIDHCRPRIASYKKPKSVAFAAALPRTVSGKRDYDALDKEYGGGGYPGAATLGPGR | – | – | – | – | Km (A497K/P-loop mutant): 69 ± 11 µM; Vmax (A497K/P-loop mutant): 5.94 µmol/min; kcat (A497K/P-loop mutant): 10 s⁻¹; kcat/Km (A497K/P-loop mutant): 140000 M⁻¹ s⁻¹
4 | PtmA2 (Streptomyces platensis; E416A) (protein) MQHTTIGDVLREHRRSHPGRTALVDGPVRLTWPELDDRVNRLAGSLAASGIGRGDRIMWLGQNSFRVYELIAAAGKLGAMVCVGYWRWAPPEMEFALRDFDPHLVVWQHQEIHETVARTREALGSDDTARWLRHDSAPQDPDGYEAFLAAGGLADPDLDIDPDSPVLVLYTAAMSGRQCGSLLSHTNLIAMATAAAWLGDIDHTTAFLNSGPMFHIGNHQFWGMPTLLMAGKNVIVRRVVAEEVRDLLVAEECTHAFLMPPTVAEIVRLNRDTGHDLSRLRATVAPHLWEGMATTDTSRFTRSGAAAGRGYGQTELSGFAVTAAYGGPAAGNAGRPGPGLTVRVLDTAGRECAVGEAGEICARGTVVHRGYWNRDEVNAHRFRSGWWHTTDLGRREPDGSLTFLGTTTRMLKSAAANIFPAEVENCIEQHPAVREAAVIGVPNTRWAQDVKAVVVLEPDAGVSEQEIIDHCRPRIASYKKPKSVAFAAALPRTVSGARDYDALDKEYGGGGYPGAATLGPGR | 7.8 ± 1.2 µM | 5.34 µmol/min | 0.18 s⁻¹ | 23000 M⁻¹ s⁻¹ | –
5 | PtmA2 (Streptomyces platensis; A172S/A173G/C179K/M174T/Q178P) (protein) MQHTTIGDVLREHRRSHPGRTALVDGPVRLTWPELDDRVNRLAGSLAASGIGRGDRIMWLGQNSFRVYELIAAAGKLGAMVCVGYWRWAPPEMEFALRDFDPHLVVWQHQEIHETVARTREALGSDDTARWLRHDSAPQDPDGYEAFLAAGGLADPDLDIDPDSPVLVLYTSGTSGRPKGSLLSHTNLIAMATAAAWLGDIDHTTAFLNSGPMFHIGNHQFWGMPTLLMAGKNVIVRRVVAEEVRDLLVAEECTHAFLMPPTVAEIVRLNRDTGHDLSRLRATVAPHLWEGMATTDTSRFTRSGAAAGRGYGQTELSGFAVTAAYGGPAAGNAGRPGPGLTVRVLDTAGRECAVGEAGEICARGTVVHRGYWNRDEVNAHRFRSGWWHTTDLGRREPDGSLTFLGTTTRMLKSAAENIFPAEVENCIEQHPAVREAAVIGVPNTRWAQDVKAVVVLEPDAGVSEQEIIDHCRPRIASYKKPKSVAFAAALPRTVSGARDYDALDKEYGGGGYPGAATLGPGR | – | – | – | – | Km (P-loop mutant): 70 ± 8 µM; Vmax (P-loop mutant): 8.88 µmol/min; kcat (P-loop mutant): 7.4 s⁻¹; kcat/Km (P-loop mutant): 110000 M⁻¹ s⁻¹
